# Experimental data reported in patent US20110251126A1, “INTESTINAL TREATMENT” (priority 2008, published 2011).
# Where a chain is given by its changes, count along the chain named. Square brackets hold non-standard residues; d marks the D form. Ends that are not written are not given here. Nle = CCCC[C@H](N)C(=O)O
# B1: [Glu10,Nle17,Nle30]hPP (peptide)
# peptide: APLEPVYPGENATPEQXAQYAADLRRYINXLTRPRY
# modifications: norleucine (Nle) at positions 17 and 30
# B2: [Leu17; Ser30]hPP (peptide)
# peptide: B1 peptide with E10D, X17L, X30S
# modifications: ends and bridges not checked
# B3: [Leu17; Thr30]hPP (peptide)
# peptide: B1 peptide with E10D, X17L, X30T
# modifications: ends and bridges not checked
# B4: [Glu10,Nle17,Nle30]hPP3-36 (peptide)
# peptide: LEPVYPGENATPEQ[Nle]AQYAADLRRYIN[Nle]LTRPRY
# modifications: ends and bridges not checked
# B5: hPP3-36 (peptide)
# peptide: LEPVYPGDNATPEQMAQYAADLRRYINMLTRPRY-NH2
# B6: [Glu10,Nle17,Nle30]hPP2-36 (peptide)
# peptide: PLEPVYPGENATPEQXAQYAADLRRYINXLTRPRY
# modifications: norleucine (Nle) at positions 17 and 30, numbered on full-length hPP (SEQ ID No:3)
# B7: [Ala30]hPP2-36 (peptide)
# peptide: B6 peptide with E9D, X16M, X29A
# modifications: ends and bridges not checked
# B8: [Leu17; Thr30]hPP2-36 (peptide)
# peptide: B6 peptide with E9D, X16L, X29T
# modifications: ends and bridges not checked
# B9: [Leu17; Ser30]hPP2-36 (peptide)
# peptide: B6 peptide with E9D, X16L, X29S
# modifications: ends and bridges not checked
# B10: [Leu17; Thr30]hPP3-36 (peptide)
# peptide: LEPVYPGDNATPEQLAQYAADLRRYINTLTRPRY
# modifications: ends and bridges not checked
# B11: [Leu17; Ser30]hPP3-36 (peptide)
# peptide: B10 peptide with T28S
# modifications: ends and bridges not checked
# Experiments:
# [1] = test system: small intestinal crypts; assay: Surviving small intestinal crypts after 13Gy total body X-irradiation; type: in vivo, mice; conditions: analyzed four days following irradiation
# Procedure: Twenty four 8-10 week old C57/B6 male mice randomized into three groups of each eight animals. Animals received PP[2-36] (0.1 mg/kg) s.c. twice daily for three days either prior or post radiation. Controls received vehicle both prior and post radiation.
# Group 1 (pretreatment): PP[2-36] (0.1 mg/kg) twice daily on day −3, −2, −1; radiation on day 0; vehicle on day 0, +1, +2, +3. Group 2 (post treatment): Vehicle twice daily on day −3, −2, −1; radiation on day 0; PP[2-36] (0.1 mg/kg twice daily on day 0, +1, +2, +3. Group 3 (control): Vehicle twice daily on day −3, −2, −1; radiation on day 0; vehicle twice daily on day 0, +1, +2, +3. All animals were irradiated (day 0) to a single dose of 13Gy total body X-irradiation. Irradiation was performed using a Pantak HF320 X-ray set (Agfa NDT Ltd, Reading, UK). The machine was operated at 300 kV, 10 mA. The X-ray tube was fitted with additional filtration to give a radiation quality of 2.3 mm Cu half-value layer (HVL). Mice were restrained in a jig, positioned at a distance of 700 mm from the focus of the X-ray tube. Irradiation was delivered at a dose rate of 75.5 cGy/min. […] For each animal ten intestinal circumferences were analyzed—a circumference is equivalent to a given length of intestine and therefore a convenient baseline unit of length. The number of surviving crypts per circumference was scored and the average per group determined. […]
# [2] = test system: small intestinal crypt cells; assay: Intestinal crypt cell proliferation (BrdU incorporation, cell positional scoring); type: in vivo, mice; conditions: 12 hours after dose
# Procedure: 3 Groups of 8 male 8-10 weeks old C57/B6 mice were treated with group 1: Vehicle, group 2:PP(2-36) 0,1 mg/kg single injection s.c., group 3: PP(2-36) 1,0 mg/kg single injection s.c. Animals were euthanized 12 hours following the single injection of either dose. Vehicle was used as control. Prior to euthanasia all animals were given BrdU (Bromodeoxyuridine) i.p.—a marker for cell proliferation. The small intestine and colon were then removed and fixed in Carnoy's solution. From the Carnoy's fixed small intestinal material, paraffin blocks were generated and sectioned. Slides were immunolabelled to reveal the BrdU incorporation and analyzed on a cell positional basis (i.e. location of the individual cell in the hierarchy of cells in the crypt) to identify any induced proliferative changes (BrdU incorporation and mitotic counts). Fifty half crypts per mouse were scored on a cell positional basis, generating 400 frequency scores per group of 8 animals from which the means were generated and effects analyzed.
# [3] = molecular target: human Y4 receptor (human, UniProt P50391 1-375); assay: cell-based or functional assay
# Sequence of human Y4 receptor (P50391 whole entry): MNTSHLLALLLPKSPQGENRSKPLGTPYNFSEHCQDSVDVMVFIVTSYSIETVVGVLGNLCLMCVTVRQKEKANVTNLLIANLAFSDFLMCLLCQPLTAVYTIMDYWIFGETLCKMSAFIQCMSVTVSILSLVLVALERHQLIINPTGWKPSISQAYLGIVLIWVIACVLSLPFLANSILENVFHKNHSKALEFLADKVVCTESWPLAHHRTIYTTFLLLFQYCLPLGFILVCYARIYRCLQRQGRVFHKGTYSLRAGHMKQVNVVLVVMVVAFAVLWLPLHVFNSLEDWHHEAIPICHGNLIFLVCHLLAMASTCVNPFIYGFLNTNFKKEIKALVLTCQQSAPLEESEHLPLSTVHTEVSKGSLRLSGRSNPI
Molecule,"increase in number of surviving crypts compared to vehicle control ([1]; post treatment 0.1 mg/kg s.c. twice daily for four days post irradiation, non-significant p>0.05) [%]","increase in number of surviving intestine crypts compared to vehicle control ([1]; pretreatment 0.1 mg/kg s.c. twice daily for three days prior irradiation, p<0.05)","level of proliferation in the small intestinal crypts ([2]; 0,1 mg/kg single injection s.c.)",level of proliferation in the small intestinal crypts ([2]; 1 mg/kg single injection s.c.),"agonist potency (inositol phosphate turnover, transfected COS-7 cells): fold greater at Y4 than at Y1 receptor [3] [fold]","agonist potency (inositol phosphate turnover, transfected COS-7 cells): fold greater at Y4 than at Y2 receptor [3] [fold]"
hPP2-36 (PLEPVYPGDNATPEQMAQYAADLRRYINMLTRPRY-NH2; listed as Homo sapiens) [PP[2-36]],47,two,increased proliferation at cell positions 6-13,stimulation was evident throughout the proliferative zone,,
B1,,,,,≥ 200,≥ 1000
B2,,,,,≥ 200,≥ 1000
B3,,,,,≥ 200,≥ 1000
B4,,,,,≥ 200,≥ 1000
B5,,,,,≥ 200,≥ 1000
B6,,,,,≥ 200,≥ 1000
B7,,,,,≥ 200,≥ 1000
B8,,,,,≥ 200,≥ 1000
B9,,,,,≥ 200,≥ 1000
B10,,,,,≥ 200,≥ 1000
B11,,,,,≥ 200,≥ 1000
